According to US20120058499:

What was measured:
[1] = biological target: hSUMO2-amino-luciferin, P61956
[2] = biological target: T1, Z-Arg-Leu-Arg-Gly-Gly (SEQ ID NO: 1)-amino-luciferin
T1 chain: RLRGG

[3] = biological target: ubiquitin-rhodamine110, P0CG47
[4] = biological target: ubiquitin-7-amino-4-methylcoumarin, P0CG47
ubiquitin-7-amino-4-methylcoumarin, P0CG47, sequence (P0CG47 whole entry, looked up): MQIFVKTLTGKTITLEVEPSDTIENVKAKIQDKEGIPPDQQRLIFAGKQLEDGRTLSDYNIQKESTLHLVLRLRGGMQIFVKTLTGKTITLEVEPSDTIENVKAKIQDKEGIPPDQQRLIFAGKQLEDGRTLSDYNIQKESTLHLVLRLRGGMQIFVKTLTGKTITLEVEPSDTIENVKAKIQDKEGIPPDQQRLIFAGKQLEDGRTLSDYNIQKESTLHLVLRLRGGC

hSUMO2-amino-luciferin, P61956, sequence (P61956 1-93): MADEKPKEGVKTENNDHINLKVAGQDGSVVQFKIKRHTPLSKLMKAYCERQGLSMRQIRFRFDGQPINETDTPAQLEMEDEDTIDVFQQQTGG
ubiquitin-rhodamine110, P0CG47, sequence (P0CG47 whole entry, looked up): as the sequence (P0CG47 whole entry, looked up) above

B1: SENP1 (protein)
chain: EFPEITEEMEKEIKNVFRNGNQDEVLSEAFRLTITRKDIQTLNHLNWLNDEIINFYMNMLMERSKEKGLPSVHAFNTFFFTKLKTAGYQAVKRWTKKVDVFSVDILLVPIHLGVHWCLAVVDFRKKNITYYDSMGGINNEACRILLQYLKQESIDKKRKEFDTNGWQLFSKKSQEIPQQMNGSDCGMFACKYADCITKDRPINFTQQHMPYFRKRMVWEILHRKLL
luminescence signal (S/B), enzyme 200 pM [1]: SENP1, SENP2, and SENP6 (200 pM) on the other hand gave strong signals with hSUMO2-amino-luciferin

B2: USP8 (protein)
chain: MPAVASVPKELYLSSSLKDLNKKTEVKPEKISTKSYVHSALKIFKTAEECRLDRDEERAYVLYMKYVTVYNLIKKRPDFKQQQDYFHSILGPGNIKKAVEEAERLSESLKLRYEEAEVRKKLEEKDRQEEAQRLQQKRQETGREDGGTLAKGSLENVLDSKDKTQKSNGEKNEKCETKEKGAITAKELYTMMTDKNISLIIMDARRMQDYQDSCILHSLSVPEEAISPGVTASWIEAHLPDDSKDTWKKRGNVEYVVLLDWFSSAKDLQIGTTLRSLKDALFKWESKTVLRNEPLVLEGGYENWLLCYPQYTTNAKVTPPPRRQNEEVSISLDFTYPSLEESIPSKPAAQTPPASIEVDENIELISGQNERMGPLNISTPVEPVAASKSDVSPIIQPVPSIKNVPQIDRTKKPAVKLPEEHRIKSESTNHEQQSPQSGKVIPDRSTKPVVFSPTLMLTDEEKARIHAETALLMEKNKQEKELRERQQEEQKEKLRKEEQEQKAKKKQEAEENEITEKQQKAKEEMEKKESEQAKKEDKETSAKRGKEITGVKRQSKSEHETSDAKKSVEDRGKRCPTPEIQKKSTGDVPHTSVTGDSGSGKPFKIKGQPESGILRTGTFREDTDDTERNKAQREPLTRARSEEMGRIVPGLPSGWAKFLDPITGTFRYYHSPTNTVHMYPPEMAPSSAPPSTPPTHKAKPQIPAERDREPSKLKRSYSSPDITQAIQEEEKRKPTVTPTVNRENKPTCYPKAEISRLSASQIRNLNPVFGGSGPALTGLRNLGNTCYMNSILQCLCNAPHLADYFNRNCYQDDINRSNLLGHKGEVAEEFGIIMKALWTGQYRYISPKDFKITIGKINDQFAGYSQQDSQELLLFLMDGLHEDLNKADNRKRYKEENNDHLDDFKAAEHAWQKHKQLNESIIVALFQGQFKSTVQCLTCHKKSRTFEAFMYLSLPLASTSKCTLQDCLRLFSKEEKLTDNNRFYCSHCRARRDSLKKIEIWKLPPVLLVHLKRFSYDGRWKQKLQTSVDFPLENLDLSQYVIGPKNNLKKYNLFSVSNHYGGLDGGHYTAYCKNAARQRWFKFDDHEVSDISVSSVKSSAAYILFYTSLGPRVTDVAT
S/B against the S/B for both Ub-AMC and Ub-Rhodamine110, enzyme 0.5 nM (Ub(1-76)-aminoluciferin): increased by ~100-fold relative to the S/B for both Ub-AMC and Ub-Rhodamine110 | luminescence signal (S/B), enzyme 200 pM [1]: hSUMO2-amino-luciferin yielded virtually no signal with the DUBs USP34, USP7, and USP8 at concentrations equal to 200 pM

B3: UCHL5 (protein)
chain: MTGNAGEWCLMESDPGVFTELIKGFGCRGAQVEEIWSLEPENFEKLKPVHGLIFLFKWQPGEEPAGSVVQDSRLDTIFFAKQVINNACATQAIVSVLLNCTHQDVHLGETLSEFKEFSQSFDAAMKGLALSNSDVIRQVHNSFARQQMFEFDTKTSAKEEDAFHFVSYVPVNGRLYELDGLREGPIDLGACNQDDWISAVRPVIEKRIQKYSEGEIRFNLMAIVSDRKMIYEQKIAELQRQLAEEEPMDTDQGNSMLSAIQSEVAKNQMLIEEEVQKLKRYKIENIRRKHNYLPFIMELLKTLAEHQQLIPLVEKAKEKQNAKKAQETK
Signal to Background, luminescence, DUB 10 nM [2]: 1.4 S/B

B4: USP34 (protein)
chain: VGLTNLGATCYLASTIQQLYMIPEARQAVFTAKYSEDMKHKTTLLELQKMFTYLMESECKAYNPRPFCKTYTMDKQPLNTGEQKDMTEFFTDLITKIEEMSPELKNTVKSLFGGVITNNVVSLDCEHVSQTAEEFYTVRCQVADMKNIYESLDEVTIKDTLEGDNMYTCSHCGKKVRAEKRACFKKLPRILSFNTMRYTFNMVTMMKEKVNTHFSFPLRLDMTPYTEDFLMGKSERKEGFKEVSDHSKDSESYEYDLIGVTVHTGTADGGHYYSFIRDIVNPHAYKNNKWYLFNDAEVKPFDSAQLASECFGGEMTTKTYDSVTDKFMDFSFEKTHSAYMLFYKRM
luminescence signal (S/B), enzyme 200 pM [1]: hSUMO2-amino-luciferin yielded virtually no signal with the DUBs USP34, USP7, and USP8 at concentrations equal to 200 pM

B5: Ataxin3-like (protein)
chain: MDFIFHEKQEGFLCAQHCLNNLLQGEYFSPVELASIAHQLDEEERMRMAEGGVTSEEYLAFLQQPSENMDDTGFFSIQVISNALKFWGLEIIHFNNPEYQKLGIDPINERSFICNYKQHWFTIRKFGKHWFNLNSLLAGPELISDTCLANFLARLQQQAYSVFVVKGDLPDCEADQLLQIISVEEMDTPKLNGKKLVKQKEHRVYKTVLEKVSEESDESGTSDQDEEDFQRALELSRQETNREDEHLRSTIELSMQGSSGNTSQDLPKTSCVTPASEQPKKIKEDYFEKHQQEQKQQQQQSDLPGHSSYLHERPTTSSRAIESDLSDDISEGTVQAAVDTILEIMRKNLKIKGEK
Signal to Background, luminescence, DUB 10 nM (Ub(1-76)-aminoluciferin): 120 S/B | Signal to Background, fluorescence, DUB 10 nM [3]: 1.6 S/B | Signal to Background, luminescence, DUB 10 nM [2]: 1.5 S/B | Signal to Background, fluorescence, DUB 10 nM [4]: 1.1 S/B

B6: JosD2 (protein)
chain: MSQAPGAQPSPPTVYHERQRLELCAVHALNNVLQQQLFSQEAADEICKRLAPDSRLNPHRSLLGTGNYDVNVIMAALQGLGLAAVWWDRRRPLSQLALPQVLGLILNLPSPVSLGLLSLPLRRRHWVALRQVDGVYYNLDSKLRAPEALGDEDGVRAFLAAALAQGLCEVLLVVTKEVEEKGSWLRTD
Signal to Background, luminescence, DUB 10 nM (Ub(1-76)-aminoluciferin): 760 S/B | Signal to Background, fluorescence, DUB 10 nM [3]: 8.2 S/B | Signal to Background, luminescence, DUB 10 nM [2]: 2.1 S/B | Signal to Background, fluorescence, DUB 10 nM [4]: 2.1 S/B

B7: SENP2 (sentrin-specific protease 2) (protein)
chain: DLLELTEDMEKEISNALGHGPQDEILSSAFKLRITRGDIQTLKNYHWLNDEVINFYMNLLVERNKKQGYPALHVFSTFFYPKLKSGGYQAVKRWTKGVNLFEQEIILVPIHRKVHWSLVVIDLRKKCLKYLDSMGQKGHRICEILLQYLQDESKTKRNSDLNLLEWTHHSMKPHEIPQQLNGSDCGMFTCKYADYISRDKPITFTQHQMPLFRKKMVWEILHQQLL
luminescence signal (S/B), enzyme 200 pM [1]: SENP1, SENP2, and SENP6 (200 pM) on the other hand gave strong signals with hSUMO2-amino-luciferin | luminescence signal (S/B), enzyme 200 pM [2]: Z-Arg-Leu-Arg-Gly-Gly (SEQ ID NO: 1)-amino-luciferin also gave signals with SENP2 and SENP6 (200 pM)

B8: SENP6 (protein)
chain: EEETGENHTIFIGPVEKLIVYPPPPAKGGISVTNEDLHCLNEGEFLNDVIIDFYLKYLVLEKLKKEDADRIHIFSSFFYKRLNQRERRNHETTNLSIQQKRHGRVKTWTRHVDIFEKDFIFVPLNEAAHWFLAVVCFPGLEKPKYEPNPHYHENAVIQKCSTVEDSCISSSASEMESCSQNSSAKPVIKKMLNKKHCIAVIDSNPGQEESDPRYKRNICSVKYSVKKINHTASENEEFNKGESTSQKVADRTKSENGLQNESLSSTHHTDGLSKIRLNYSDESPEAGKMLEDELVDFSEDQDNQDDSSDDGFLADDNCSSEIGQWHLKPTICKQPCILLMDSLRGPSRSNVVKILREYLEVEWEVKKGSKRSFSKDVMKGSNPKVPQQNNFSDCGVYVLQYVESFFENPILSFELPMNLANWFPPPRMRTKREEIRNIILKLQEDQSKEKRKHKDTYSTEAPLGEGTEQYVNSISD
luminescence signal (S/B), enzyme 200 pM [1]: SENP1, SENP2, and SENP6 (200 pM) on the other hand gave strong signals with hSUMO2-amino-luciferin | luminescence signal (S/B), enzyme 200 pM [2]: Z-Arg-Leu-Arg-Gly-Gly (SEQ ID NO: 1)-amino-luciferin also gave signals with SENP2 and SENP6 (200 pM)

B9: AMSH (associated molecule with the SH3 domain of STAM) (protein)
chain: MSDHGDVSLPPEDRVRALSQLGSAVEVNEDIPPRRYFRSGVEIIRMASIYSEEGNIEHAFILYNKYITLFIEKLPKHRDYKSAVIPEKKDTVKKLKEIAFPKAEELKAELLKRYTKEYTEYNEEKKKEAEELARNMAIQQELEKEKQRVAQQKQQQLEQEQFHAFEEMIRNQELEKERLKIVQEFGKVDPGLGGPLVPDLEKPSLDVFPTLTVSSIQPSDCHTTVRPAKPPVVDRSLKPGALSNSESIPTIDGLRHVVVPGRLCPQFLQLASANTARGVETCGILCGKLMRNEFTITHVLIPKQSAGSDYCNTENEEELFLIQDQQGLITLGWIHTHPTQTAFLSSVDLHTHCSYQMMLPESVAIVCSPKFQETGFFKLTDHGLEEISSCRQKGFHPHSKDPPLFCSCSHVTVVDRAVTITDLR
Signal to Background, luminescence, DUB 10 nM [2]: 1.4 S/B

B10: UCHL3 (ubiquitin carboxyl-terminal hydrolase isozyme L3) (protein)
chain: MEGQRWLPLEANPEVTNQFLKQLGLHPNWQFVDVYGMDPELLSMVPRPVCAVLLLFPITEKYEVFRTEEEEKIKSQGQDVTSSVYFMKQTISNACGTIGLIHAIANNKDKMHFESGSTLKKFLEESVSMSPEERARYLENYDAIRVTHETSAHEGQTEAPSIDEKVDLHFIALVHVDGHLYELDGRKPFPINHGETSDETLLEDAIEVCKKFMERDPDELRFNAIALSAA
S/B against the S/B for Ub-AMC, UCHL3 0.01 nM (Ub(1-76)-aminoluciferin): ~50-fold greater than the S/B for Ub-AMC | S/B against the S/B for Ub-rhodamine110, UCHL3 0.01 nM (Ub(1-76)-aminoluciferin): ~200-fold greater than the S/B for Ub-rhodamine110 | signal to background (S/B) ratio, bioluminescence, 100 nM substrate, 32 pM UCHL3 (Ub(1-76)-aminoluciferin): the same S/B ratio of 1000 was obtained with 100 nM Ub-amino-luciferin and UCHL3 at a concentration of 32 pM | signal to background (S/B) ratio, bioluminescence, 20 uM substrate, 40 nM UCHL3 [2]: a signal to background (S/B) ratio of ~1000 was obtained

B11: USP2core (the common catalytic core domain of the two isoforms of USP2, USP2a and USP2b) (protein)
chain: NSKSAQGLAGLRNLGNTCFMNSILQCLSNTRELRDYCLQRLYMRDLHHGSNAHTALVEEFAKLIQTIWTSSPNDVVSPSEFKTQIQRYAPRFVGYNQQDAQEFLRFLLDGLHNEVNRVTLRPKSNPENLDHLPDDEKGRQMWRKYLEREDSRIGDLFVGQLKSSLTCTDCGYCSTVFDPFWDLSLPIAKRGYPEVTLMDCMRLFTKEDVLDGDEKPTCCRCRGRKRCIKKFSIQRFPKILVLHLKRFSESRIRTSKLTTFVNFPLRDLDLREFASENTNHAVYNLYAVSNHSGTTMGGHYTAYCRSPGTGEWHTFNDSSVTPMSSSQVRTSDAYLLFYELASPPSRM
S/B against the S/B for both Ub-AMC and Ub-Rhodamine110, enzyme 0.5 nM (Ub(1-76)-aminoluciferin): increased by ~100-fold relative to the S/B for both Ub-AMC and Ub-Rhodamine110

B12: Otubain2 (Otub2) (protein)
chain: MSETSFNLISEKCDILSILRDHPENRIYRRKIEELSKRFTAIRKTKGDGNCFYRALGYSYLESLLGKSREIFKFKERVLQTPNDLLAAGFEEHKFRNFFNAFYSVVELVEKDGSVSSLLKVFNDQSASDHIVQFLRLLTSAFIRNRADFFRHFIDEEMDIKDFCTHEVEPMATECDHIQITALSQALSIALQVEYVDEMDTALNHHVFPEAATPSVYLLYKTSHYNILYAADKH
Signal to Background, luminescence, DUB 10 nM (Ub(1-76)-aminoluciferin): 980 S/B | Signal to Background, fluorescence, DUB 10 nM [3]: 1.7 S/B | Signal to Background, luminescence, DUB 10 nM [2]: 1.3 S/B | Signal to Background, fluorescence, DUB 10 nM [4]: 1.2 S/B
